To fix the notation:
B1: AT638 (peptide)
peptide: PGTFISDYSIAMDKIK(C16 diacid)QQDFVNWLLAQKPSSGAPPPS-OH
modifications: N-terminus assumed
SMILES: CC[C@H](C)[C@H](NC(=O)[C@H](CO)NC(=O)[C@H](Cc1ccc(O)cc1)NC(=O)[C@H](CC(=O)O)NC(=O)[C@H](CO)NC(=O)[C@@H](NC(=O)[C@H](Cc1ccccc1)NC(=O)[C@@H](NC(=O)CNC(=O)[C@@H]1CCCN1)[C@@H](C)O)[C@@H](C)CC)C(=O)N[C@@H](C)C(=O)N[C@@H](CCSC)C(=O)N[C@@H](CC(=O)O)C(=O)N[C@@H](CCCCN)C(=O)N[C@H](C(=O)N[C@@H](CCCCNC(=O)CCCCCCCCCCCCCCC(=O)O)C(=O)N[C@@H](CCC(N)=O)C(=O)N[C@@H](CCC(N)=O)C(=O)N[C@@H](CC(=O)O)C(=O)N[C@@H](Cc1ccccc1)C(=O)N[C@H](C(=O)N[C@@H](CC(N)=O)C(=O)N[C@@H](Cc1c[nH]c2ccccc12)C(=O)N[C@@H](CC(C)C)C(=O)N[C@@H](CC(C)C)C(=O)N[C@@H](C)C(=O)N[C@@H](CCC(N)=O)C(=O)N[C@@H](CCCCN)C(=O)N1CCC[C@H]1C(=O)N[C@@H](CO)C(=O)N[C@@H](CO)C(=O)NCC(=O)N[C@@H](C)C(=O)N1CCC[C@H]1C(=O)N1CCC[C@H]1C(=O)N1CCC[C@H]1C(=O)N[C@@H](CO)C(=O)O)C(C)C)[C@@H](C)CC
B2: AT635 (peptide)
peptide: Ac-EGTFISEYSIAMEKIK(C16 diacid)QQDFVNWLLAQKPSSGAPPPS-OH
SMILES: CC[C@H](C)[C@H](NC(=O)[C@H](CO)NC(=O)[C@H](Cc1ccc(O)cc1)NC(=O)[C@H](CCC(=O)O)NC(=O)[C@H](CO)NC(=O)[C@@H](NC(=O)[C@H](Cc1ccccc1)NC(=O)[C@@H](NC(=O)CNC(=O)[C@H](CCC(=O)O)NC(C)=O)[C@@H](C)O)[C@@H](C)CC)C(=O)N[C@@H](C)C(=O)N[C@@H](CCSC)C(=O)N[C@@H](CCC(=O)O)C(=O)N[C@@H](CCCCN)C(=O)N[C@H](C(=O)N[C@@H](CCCCNC(=O)CCCCCCCCCCCCCCC(=O)O)C(=O)N[C@@H](CCC(N)=O)C(=O)N[C@@H](CCC(N)=O)C(=O)N[C@@H](CC(=O)O)C(=O)N[C@@H](Cc1ccccc1)C(=O)N[C@H](C(=O)N[C@@H](CC(N)=O)C(=O)N[C@@H](Cc1c[nH]c2ccccc12)C(=O)N[C@@H](CC(C)C)C(=O)N[C@@H](CC(C)C)C(=O)N[C@@H](C)C(=O)N[C@@H](CCC(N)=O)C(=O)N[C@@H](CCCCN)C(=O)N1CCC[C@H]1C(=O)N[C@@H](CO)C(=O)N[C@@H](CO)C(=O)NCC(=O)N[C@@H](C)C(=O)N1CCC[C@H]1C(=O)N1CCC[C@H]1C(=O)N1CCC[C@H]1C(=O)N[C@@H](CO)C(=O)O)C(C)C)[C@@H](C)CC
B3: AT639 (peptide)
peptide: VETFISDYSIAMDKIK(C16 diacid)QQDFVNWLLAQKPSSGAPPPS-OH
modifications: N-terminus assumed
SMILES: CC[C@H](C)[C@H](NC(=O)[C@H](CO)NC(=O)[C@H](Cc1ccc(O)cc1)NC(=O)[C@H](CC(=O)O)NC(=O)[C@H](CO)NC(=O)[C@@H](NC(=O)[C@H](Cc1ccccc1)NC(=O)[C@@H](NC(=O)[C@H](CCC(=O)O)NC(=O)[C@@H](N)C(C)C)[C@@H](C)O)[C@@H](C)CC)C(=O)N[C@@H](C)C(=O)N[C@@H](CCSC)C(=O)N[C@@H](CC(=O)O)C(=O)N[C@@H](CCCCN)C(=O)N[C@H](C(=O)N[C@@H](CCCCNC(=O)CCCCCCCCCCCCCCC(=O)O)C(=O)N[C@@H](CCC(N)=O)C(=O)N[C@@H](CCC(N)=O)C(=O)N[C@@H](CC(=O)O)C(=O)N[C@@H](Cc1ccccc1)C(=O)N[C@H](C(=O)N[C@@H](CC(N)=O)C(=O)N[C@@H](Cc1c[nH]c2ccccc12)C(=O)N[C@@H](CC(C)C)C(=O)N[C@@H](CC(C)C)C(=O)N[C@@H](C)C(=O)N[C@@H](CCC(N)=O)C(=O)N[C@@H](CCCCN)C(=O)N1CCC[C@H]1C(=O)N[C@@H](CO)C(=O)N[C@@H](CO)C(=O)NCC(=O)N[C@@H](C)C(=O)N1CCC[C@H]1C(=O)N1CCC[C@H]1C(=O)N1CCC[C@H]1C(=O)N[C@@H](CO)C(=O)O)C(C)C)[C@@H](C)CC
B4: AT633 (peptide)
peptide: Ac-EGTFISDYSIAMDKIK(C16 diacid)QQDFVNWLLAQKPSSGAPPPS-OH
SMILES: CC[C@H](C)[C@H](NC(=O)[C@H](CO)NC(=O)[C@H](Cc1ccc(O)cc1)NC(=O)[C@H](CC(=O)O)NC(=O)[C@H](CO)NC(=O)[C@@H](NC(=O)[C@H](Cc1ccccc1)NC(=O)[C@@H](NC(=O)CNC(=O)[C@H](CCC(=O)O)NC(C)=O)[C@@H](C)O)[C@@H](C)CC)C(=O)N[C@@H](C)C(=O)N[C@@H](CCSC)C(=O)N[C@@H](CC(=O)O)C(=O)N[C@@H](CCCCN)C(=O)N[C@H](C(=O)N[C@@H](CCCCNC(=O)CCCCCCCCCCCCCCC(=O)O)C(=O)N[C@@H](CCC(N)=O)C(=O)N[C@@H](CCC(N)=O)C(=O)N[C@@H](CC(=O)O)C(=O)N[C@@H](Cc1ccccc1)C(=O)N[C@H](C(=O)N[C@@H](CC(N)=O)C(=O)N[C@@H](Cc1c[nH]c2ccccc12)C(=O)N[C@@H](CC(C)C)C(=O)N[C@@H](CC(C)C)C(=O)N[C@@H](C)C(=O)N[C@@H](CCC(N)=O)C(=O)N[C@@H](CCCCN)C(=O)N1CCC[C@H]1C(=O)N[C@@H](CO)C(=O)N[C@@H](CO)C(=O)NCC(=O)N[C@@H](C)C(=O)N1CCC[C@H]1C(=O)N1CCC[C@H]1C(=O)N1CCC[C@H]1C(=O)N[C@@H](CO)C(=O)O)C(C)C)[C@@H](C)CC
B5: AT637 (peptide)
peptide: [Aib]GTFISDYSIAMDKIK(C16 diacid)QQDFVNWLLAQKPSSGAPPPS-OH
modifications: N-terminus assumed
SMILES: CC[C@H](C)[C@H](NC(=O)[C@H](CO)NC(=O)[C@H](Cc1ccc(O)cc1)NC(=O)[C@H](CC(=O)O)NC(=O)[C@H](CO)NC(=O)[C@@H](NC(=O)[C@H](Cc1ccccc1)NC(=O)[C@@H](NC(=O)CNC(=O)C(C)(C)N)[C@@H](C)O)[C@@H](C)CC)C(=O)N[C@@H](C)C(=O)N[C@@H](CCSC)C(=O)N[C@@H](CC(=O)O)C(=O)N[C@@H](CCCCN)C(=O)N[C@H](C(=O)N[C@@H](CCCCNC(=O)CCCCCCCCCCCCCCC(=O)O)C(=O)N[C@@H](CCC(N)=O)C(=O)N[C@@H](CCC(N)=O)C(=O)N[C@@H](CC(=O)O)C(=O)N[C@@H](Cc1ccccc1)C(=O)N[C@H](C(=O)N[C@@H](CC(N)=O)C(=O)N[C@@H](Cc1c[nH]c2ccccc12)C(=O)N[C@@H](CC(C)C)C(=O)N[C@@H](CC(C)C)C(=O)N[C@@H](C)C(=O)N[C@@H](CCC(N)=O)C(=O)N[C@@H](CCCCN)C(=O)N1CCC[C@H]1C(=O)N[C@@H](CO)C(=O)N[C@@H](CO)C(=O)NCC(=O)N[C@@H](C)C(=O)N1CCC[C@H]1C(=O)N1CCC[C@H]1C(=O)N1CCC[C@H]1C(=O)N[C@@H](CO)C(=O)O)C(C)C)[C@@H](C)CC
B6: AT636 (peptide)
peptide: VGTFISDYSIAMDKIK(C16 diacid)QQDFVNWLLAQKPSSGAPPPS-OH
modifications: N-terminus assumed
SMILES: CC[C@H](C)[C@H](NC(=O)[C@H](CO)NC(=O)[C@H](Cc1ccc(O)cc1)NC(=O)[C@H](CC(=O)O)NC(=O)[C@H](CO)NC(=O)[C@@H](NC(=O)[C@H](Cc1ccccc1)NC(=O)[C@@H](NC(=O)CNC(=O)[C@@H](N)C(C)C)[C@@H](C)O)[C@@H](C)CC)C(=O)N[C@@H](C)C(=O)N[C@@H](CCSC)C(=O)N[C@@H](CC(=O)O)C(=O)N[C@@H](CCCCN)C(=O)N[C@H](C(=O)N[C@@H](CCCCNC(=O)CCCCCCCCCCCCCCC(=O)O)C(=O)N[C@@H](CCC(N)=O)C(=O)N[C@@H](CCC(N)=O)C(=O)N[C@@H](CC(=O)O)C(=O)N[C@@H](Cc1ccccc1)C(=O)N[C@H](C(=O)N[C@@H](CC(N)=O)C(=O)N[C@@H](Cc1c[nH]c2ccccc12)C(=O)N[C@@H](CC(C)C)C(=O)N[C@@H](CC(C)C)C(=O)N[C@@H](C)C(=O)N[C@@H](CCC(N)=O)C(=O)N[C@@H](CCCCN)C(=O)N1CCC[C@H]1C(=O)N[C@@H](CO)C(=O)N[C@@H](CO)C(=O)NCC(=O)N[C@@H](C)C(=O)N1CCC[C@H]1C(=O)N1CCC[C@H]1C(=O)N1CCC[C@H]1C(=O)N[C@@H](CO)C(=O)O)C(C)C)[C@@H](C)CC

Where no end group is shown, it is not given here. [ ]: non-standard residue; d: D form. The star is where a group is joined. C16 diacid = O=C(O)CCCCCCCCCCCCCCC(=O)*; Aib = CC(C)(N)C(=O)O

The assay addresses T1, human GIP receptor (human, UniProt P48546 22-466).
T1 sequence (looked up): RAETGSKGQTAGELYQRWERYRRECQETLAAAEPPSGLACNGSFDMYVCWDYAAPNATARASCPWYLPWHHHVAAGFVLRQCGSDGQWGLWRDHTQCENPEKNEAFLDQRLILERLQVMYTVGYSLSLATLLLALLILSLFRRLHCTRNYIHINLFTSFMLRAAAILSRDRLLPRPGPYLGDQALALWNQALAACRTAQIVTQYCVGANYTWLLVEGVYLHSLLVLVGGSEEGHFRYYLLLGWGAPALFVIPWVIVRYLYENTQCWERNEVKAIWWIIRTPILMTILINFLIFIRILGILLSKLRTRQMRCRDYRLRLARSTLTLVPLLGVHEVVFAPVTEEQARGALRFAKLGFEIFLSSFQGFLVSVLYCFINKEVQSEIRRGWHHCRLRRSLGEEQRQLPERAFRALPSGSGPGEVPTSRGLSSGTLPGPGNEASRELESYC
In words: cell-based or functional assay.
In the case of B1, the “cAMP agonism % Emax” value was found to be 0%, the “cAMP antagonism” value is 14.7 nM, the “cAMP antagonism % inhib” value worked out at 85% and the “cAMP antagonism pIC50” value turned out to be 7.8.
On the same counts, the results for B2 are 5%, 1.12 nM, 87% and 9.
On the same counts, the results for B3 are 0%, 66.8 nM, 100% and 7.2.
Consider B4, for which the “cAMP agonism % Emax” value stood at 23% and the “cAMP antagonism pIC50” value was around 8.8.
Consider B5, for which the “cAMP agonism % Emax” value is 0%, the “cAMP antagonism” value was found to be 2.23 nM, the “cAMP antagonism % inhib” value came to 89% and the “cAMP antagonism pIC50” value stood at 8.7.
On the same counts, the results for B6 are 0%, 1.71 nM, 87% and 8.8.

For the origin of these results see patent publication US20220298218A1 (ANTAG THERAPEUTICS, published 2022).
